Test [1] addresses His-tagged XRCC1, insect-cell expressed (human) (UniProt P18887). As to the kind of experiment: co-purification after co-expression.
Test [2] deals with His-tagged LigIIIα (full-length DNA ligase IIIα), co-expressed with TDP1 in insect cells (human). As to the kind of experiment: co-purification after co-expression.
In test [3] the target is LigIIIα co-expressed with His-tagged XRCC1 and TDP1 in insect cells (human). As to the kind of experiment: co-purification after co-expression.
In test [4] the target is His-tagged LigIIIβ full length (1–846) (human). Nature of the test: SPR. (In SPR one partner is held on a chip, and binding of the other changes the refractive index at the surface.)
Test [5] concerns the target LigIII_(170–755) (human). As to the kind of experiment: SEC-MALS. (In general: SEC sorts molecules by how far they enter the pores of the column.)

UniProt P18887, sequence (P18887 whole entry): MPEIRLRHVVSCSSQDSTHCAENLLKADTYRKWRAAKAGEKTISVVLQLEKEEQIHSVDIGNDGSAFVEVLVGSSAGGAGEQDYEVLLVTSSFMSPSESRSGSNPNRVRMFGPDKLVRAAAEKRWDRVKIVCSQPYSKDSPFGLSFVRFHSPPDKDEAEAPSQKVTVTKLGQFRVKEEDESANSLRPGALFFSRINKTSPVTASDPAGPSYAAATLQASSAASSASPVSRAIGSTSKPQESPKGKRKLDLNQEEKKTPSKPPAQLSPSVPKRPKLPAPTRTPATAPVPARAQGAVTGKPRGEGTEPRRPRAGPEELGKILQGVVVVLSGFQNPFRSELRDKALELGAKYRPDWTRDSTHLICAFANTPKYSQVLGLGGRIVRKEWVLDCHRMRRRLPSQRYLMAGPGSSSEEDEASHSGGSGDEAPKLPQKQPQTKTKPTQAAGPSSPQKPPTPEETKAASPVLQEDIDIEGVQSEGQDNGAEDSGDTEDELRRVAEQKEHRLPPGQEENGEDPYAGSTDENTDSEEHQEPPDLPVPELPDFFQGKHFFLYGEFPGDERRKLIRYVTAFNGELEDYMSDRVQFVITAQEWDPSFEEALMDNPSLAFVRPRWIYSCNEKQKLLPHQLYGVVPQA

Broadly, the stoichiometry N is a count of units in the complex or per binding partner. In test [1], “LigIIIα co-expressed with His-tagged XRCC1 and TDP1 in insect cells (enzyme)” displayed a stoichiometry N of 1. A word on the Kd: it is a measure of binding affinity in units of concentration. Consider “Flag-tagged TDP1 (tyrosyl DNA phosphodiesterase 1), insect-cell expressed, phosphorylated (from UniProt Q9NUW8 1-608) (enzyme)”, for which the stoichiometry N in test [2], in test [3] and in test [5] was 1 in each case. Besides, the Kd in test [4] was determined as 5.1 nM. In test [4], “TDP1-S81E, insect-cell expressed, phosphorylated (from UniProt Q9NUW8 1-608) (enzyme)” had a Kd of 8.8 nM. “TDP1-S81A, insect-cell expressed, phosphorylated (from UniProt Q9NUW8 1-608) (enzyme)” showed a dissociation constant Kd in test [4] of 5.3 nM.
